According to IntAct's records for PubMed 22244764:

B1: PHD finger protein 12 (Homo sapiens), Q96QT6 (parent)
chain: MWEKMETKTIVYDLDTSGGLMEQIQALLAPPKTDEAEKRSRKPEKEPRRSGRATNHDSCDSCKEGGDLLCCDHCPAAFHLQCCNPPLSEEMLPPGEWMCHRCTVRRKKREQKKELGHVNGLVDKSGKRTTSPSSDTDLLDRSASKTELKAIAHARILERRASRPGTPTSSASTETPTSEQNDVDEDIIDVDEEPVAAEPDYVQPQLRRPFELLIAAAMERNPTQFQLPNELTCTTALPGSSKRRRKEETTGKNVKKTQHELDHNGLVPLPVKVCFTCNRSCRVAPLIQCDYCPLLFHMDCLEPPLTAMPLGRWMCPNHIEHVVLNQKNMTLSNRCQVFDRFQDTVSQHVVKVDFLNRIHKKHPPNRRVLQSVKRRSLKVPDAIKSQYQFPPPLIAPAAIRDGELICNGIPEESQMHLLNSEHLATQAEQQEWLCSVVALQCSILKHLSAKQMPSHWDSEQTEKADIKPVIVTDSSVTTSLQTADKTPTPSHYPLSCPSGISTQNSLSCSPPHQSPALEDIGCSSCAEKSKKTPCGTANGPVNTEVKANGPHLYSSPTDSTDPRRLPGANTPLPGLSHRQGWPRPLTPPAAGGLQNHTVGIIVKTENATGPSSCPQRSLVPVPSLPPSIPSSCASIENTSTLQRKTVQSQIGPPLTDSRPLGSPPNATRVLTPPQAAGDGILATTANQRFSSPAPSSDGKVSPGTLSIGSALTVPSFPANSTAMVDLTNSLRAFMDVNGEIEINMLDEKLIKFLALQRIHQLFPSRVQPSPGSVGTHQLASGGHHIEVQRKEVQARAVFYPLLGLGGAVNMCYRTLYIGTGADMDVCLTNYGHCNYVSGKHACIFYDENTKHYELLNYSEHGTTVDNVLYSCDFSEKTPPTPPSSIVAKVQSVIRRRRHQKQDEEPSEEAAMMSSQAQGPQRRPCNCKASSSSLIGGSGAGWEGTALLHHGSYIKLGCLQFVFSITEFATKQPKGDASLLQDGVLAEKLSLKPHQGPVLRSNSVP
B2: PHD finger protein 12 (Mus musculus), Q5SPL2 (parent)
chain: MWEKMETKTIVYDLDTSGGLMEQIQALLAPPKTDEAEKRSRKPEKESRRSGRATNHDSCDSCKEGGDLLCCDHCPAAFHLQCCNPPLSEEMLPPGEWMCHRCTVRRKKREQKKELGHVNGLVDKSSKRTTSPSSDTDLLDRPASKTELKAIAHARILERRASRPGTPTSNASTETPTSEHNDVDEDIVDVDEEPVAAEPDYVQPQLRRPFELLIAAAMERNPTQFQLPNELTCTTALPGSSKRRRKEETTGKNVKRTQHELDHNGLVPLPVKVCFTCNRSCRVAPLIQCDYCPLLFHMDCLEPPLTAMPLGRWMCPNHIEHVVLNQKNLTLSNRCQVFDRFQDTISQHVVKVDFLNRIHKKHPPNRRVLQSVKRRSLKVPDAIKSQYQFPPPLIAPAAIRDGELICSGVPEESQTHLLNSEHLATQAEQQEWLCSVVALQCSILKHLSAKQMPSPWDSEQTEKADIKPVIVTDSSITTSLQTADKAPLPSHYPLSCPSAVSTQNSLGCSPPHQPPTLEDISCSSCVEKSKKAPCGTANGPVNTEIKANGPHLYSSPTDSTDPRRLPGANTPLPGLTHRQGWPRPLTPPSAGGLQNHVGIIVKTENATGPSSCPQRSLVPVPSLPPSIPSSCASIENTSTLHRKTVQSQIGPSSTESRPLGSPPNATRVLTPPQAAGDSILATGANQRFCSPAPSSDGKVSPGTLSIGSALTVPSFPANSTAMVDLTNSLRAFMDVNGEIEINMLDEKLIKFLALQRVHQLFPSRVQASPGNVGTHPLASGGHHPEVQRKEVQARAVFCPLLGLGGAVNMCYRTLYIGTGADMDVCLTNYGHCNYVSGKHACIFYDENTKHYELLNYSEHGTTVDNVLYSCDFSEKTPPTPPSSIVAKVQSVIRRRRHQKQDEEPSEEAAMMSSQAQGPQRRPCNCKASSSSLIGGSGAGWEGTALLHHGSYIKLGCLQFVFSITEFATKQPKGDASLLQDGVLAEKLSLKPHQGPVLRSNSVP
B3: Mortality factor 4-like protein 1 (Homo sapiens), Q9UBU8-2 (parent)
chain: MAPKQDPKPKFQEGERVLCFHGPLLYEAKCVKVAIKDKQVKYFIHYSGWNKNWDEWVPESRVLKYVDTNLQKQRELQKANQEQYAEGKMRGAAPGKKTSGLQQKNVEVKTKKNKQKTPGNGDGGSTSETPQPPRKKRARVDPTVENEETFMNRVEVKVKIPEELKPWLVDDWDLITRQKQLFYLPAKKNVDSILEDYANYKKSRGNTDNKEYAVNEVVAGIKEYFNVMLGTQLLYKFERPQYAEILADHPDAPMSQVYGAPHLLRLFVRIGAMLAYTPLDEKSLALLLNYLHDFLKYLAKNSATLFSASDYEVAPPEYHRKAV

Variants of: B1
Conditions: with MORF4L1, Q9UBU8-2

Variant	effect of a mutation on the interaction
L227A	decreasing interaction
F210A	decreasing interaction
F225A	decreasing interaction
L213A	decreasing interaction
N221E	decreasing interaction
P228A	decreasing interaction

Variants of: B2
Conditions: with MORF4L1, Q9UBU8-2

Variant	effect of a mutation on the interaction
F210A	disrupting interaction
P228A	decreasing interaction
L213A	disrupting interaction
F225A	disrupting interaction strength
L227A	disrupting interaction

Variants of: B3
Conditions: with phf12_human PHF12, Q96QT6

Variant	effect of a mutation on the interaction
Y235A	disrupting interaction
M228A	decreasing interaction
L287A	decreasing interaction
W172A	decreasing interaction
V268A	decreasing interaction
V227A	decreasing interaction

Variants of: B3
Conditions: with phf12_mouse Phf12, Q5SPL2

Variant	effect of a mutation on the interaction
L287A	decreasing interaction
V227A	decreasing interaction
L168A	decreasing interaction
